Test [1] relates to C5aR1 mutants (N-terminus, ECL1, ECL2, ECL3). Description: Alanine scanning / mutagenesis epitope mapping of C5aR1. The class given is binding, human. The text has this:
FIG. 5A is a diagram showing the results of alanine scanning mutations of site I interaction with mab 583. The N-terminal amino acid sequence of C5aR1 is listed across the top of the figure. Glycosylation sites are indicated by rectangle boxes. The only natural glycosylation site is at position N5. The other sites were introduced by mutagenesis. Mutations that abolished clone 583 binding are circled. The sulfated tyrosines at positions 11 and 14 are marked with a star sign. FIG. 5B is a diagram showing results of alanine scanning mutations of site I interaction with mab 66. Mutations that abolished clone 66 binding are circled. The sulfated tyrosines at positions 11 and 14 are marked with a star sign.
Ala substitutions of T8 & D10 moderately reduces its affinity while Y11 & D15 abolishes mAb binding. […] N-glycosylation of at N17 or D17P also abolishes mAb binding. N5 glycan is tolerated but a tandem glycosylation (N5 & N17) is not tolerated. mAb core epitopes are T8-G12 but nature of AA present in D15-D18 influence its binding. […] The core epitope appears to be located near T8-G12, with additional contributions from D15-D18.
Clone 66 was previously characterized as a site I binder and its binding is dependent on tyrosine sulfation at positions 11Y and/or 14Y. […] It should be noted that the only the only non-human species to retain clone 66 binding was baboon, which is the only NHP that retains the DYGHY motif.
However, it was unknown if additional contacts were made with ECL1 or ECL3. […] The data is highlighted in FIG. 5C-5E.
The core epitope of clone 11 is from E180-P183; the core epitope of clone 329 is from E180-P184; and the core epitope of clone 336 is from R178-P183. […] The data for clones 11, 329, and 336 is highlighted in FIG. 5F.

For test [2], the target named is T1, C5aR1 (Homo sapiens, UniProt P21730).
T1 sequence (P21730 1-350): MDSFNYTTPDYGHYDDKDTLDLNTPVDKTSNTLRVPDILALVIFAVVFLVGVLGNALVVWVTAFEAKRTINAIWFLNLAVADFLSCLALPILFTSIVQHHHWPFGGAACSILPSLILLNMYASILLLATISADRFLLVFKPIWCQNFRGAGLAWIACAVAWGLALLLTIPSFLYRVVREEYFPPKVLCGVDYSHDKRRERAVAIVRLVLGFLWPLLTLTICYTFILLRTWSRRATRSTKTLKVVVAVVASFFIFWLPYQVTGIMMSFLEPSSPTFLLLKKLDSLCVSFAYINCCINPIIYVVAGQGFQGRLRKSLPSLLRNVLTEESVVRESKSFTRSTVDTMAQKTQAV
Description: GeneBLAzer reporter assay (C5aR1 mediated Gα signaling). Conditions: for inhibition of C5aR1 signaling / activity in the GeneBLAzer assay: C5a dose response with varying concentrations of antibody; for antagonism of C5aR1 compared to reference antibodies or to Avacopan: 10 nM of antibody, 10 nM C5a; for inhibition of C5aR1 mediated Gα signaling in the presence of C5-alpha: U937 cells, increasing concentrations of C5-alpha, FIGS. 20A-20G. Details: host or cells: vendor's C5aR1 GeneBLAzer reporter cell line. The class given is cell-based. As to the method:
In addition, a GeneBLAzer reporter assay was used, which mimics the calcium flux assay. The GeneBLAzer assay kit and C5aR1 cell line were commercially available from Thermo Fisher (Catalog #K1544). The assay was performed as recommend by the manufacturer. Briefly, antibodies or antagonists were incubated for 30 minutes at 37° C. C5a was then added to the cells and incubated at 37° C. for an additional 4-5 hours. Beta-lactamase substrate was then added and incubated for 2 hours at room temperature. Fluorescent measurements for each well with an excitation/emission of 409/460 (blue) and 409/530 (green) were measured. An increase in the blue to green ratio was proportional to C5aR1 activation and was used to calculate the percent of activation for the cells in each well.
Exemplary anti-C5aR1 antibodies generated as described in Example 1 were screened for antagonist activity against human C5aR1 using the GeneBLAzer assay, as described in Example 1. Briefly, cells were pre-incubated with 10 nM of antibody followed by addition of 10 nM C5a. The engineered induction of beta-lactamase expression by C5a-C5aR1 signaling was measured using the BLA substrate and calculating the ratio of blue and green fluorescence.
For orientation: In a reporter assay the amount or activity of a reporter protein is the signal.

The target of test [3] is T2, biotinylated peptide representing the N-terminus of C5aR1 with tyrosine sulfation (Homo sapiens, UniProt P21730).
T2 construct: the N-terminus with tyrosine sulfation
T2 sequence (P21730 1-37): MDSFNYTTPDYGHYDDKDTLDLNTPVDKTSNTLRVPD
Description: Epitope mapping by biolayer interferometry, N-terminus with tyrosine sulfation. The class given is binding. Details: key: “+” indicates binding to the listed peptide; “−” indicates lack of binding to the listed peptide. Particulars: 10 μg/mL of antibody, biotinylated peptide on streptavidin biosensor. As to the method:
The epitope mapping was undertaken, using biolayer interferometry, on a series of exemplary anti-C5aR1 antibodies generated as described in Example 1. Briefly, for each antibody, biotinylated peptides representing ECL2, the N-terminus with tyrosine sulfation, and the N-terminus without tyrosine sulfation, were immobilized in a streptavidin biosensor. Subsequently, the biosensor was exposed to 10 μg/mL of antibody to detect antibody binding to the immobilized peptide. The results of the epitope mapping study are shown in Table 4 (“+” indicates binding to the listed peptide; “−” indicates lack of binding to the listed peptide).
For orientation: Biolayer interferometry detects binding as a change in optical thickness at a sensor tip.

B1: clone 66: anti-C5aR1 Site I antibody; VH SEQ ID NO: 483, VL SEQ ID NO: 543 (antibody, V domains shown)
VH: QVQLQQSDAELVKPGASVKISCKASGYTFIDHAIHWVKQRPEQGLEWIGYISPGNGEIKYNEKFKAKATLTADKSSSAAYMQLNSLTSADSAVYFCKRALFYYTGKYQPMDYWGQGTTVTDSS
VL: DIVMTQSQKFMSTTAGDRVSITCKASQNVGSAVVWYQQKPGRSPKLLIYSSSIRYTGVPDRFTGSGSGTDFTLTINSVQSEDLADYFCQQYNSFPLTFGAGTKLEIK
In the case of B1, in test [1], the “non-human species that retains binding” value was “baboon” and the “requirement of tyrosine sulfation (Y11, Y14) for binding” value is listed as “sulfation is only required at position 14”. The “inhibition of C5aR1 signaling / activity in the GeneBLAzer assay” value (“inhibition of C5aR1 signaling / activity” below) in test [2] is given as “highly potent”. Further, the “Binding to Sulfated N-terminal peptide” value in test [3] is given as “+”.

B2: clone 329: anti-C5aR1 Site II antibody; VH SEQ ID NO: 492, VL SEQ ID NO: 552 (antibody, V domains shown)
VH: QVQLQQSGAELTKPGASVKLSCKASGYTFTNYWMHWVKQRPGQGLEWIGYLNPSSGYTKYNQKFKDKATLTADKSSSTAYMQLNSLTYEDSAVYYCTRSGGDNYGNPYYFDRWGQGTTVTVSS
VL: DVVMTQTPLSLTVSLGDQASISCRSSQSLVHSNGNTYLHWYLQKPGQSPKFLIYKVSNRFSGVPDRFSGSGSGTDFRLKISRVEAEDLGVYFCSQSTLVPLTFGAGTKLEIK
Consider B2, for which, in test [1] (Ala mutation of E180 & Y181), the “binding to C5aR1 mutant” value is recorded as “abolished mAb binding”. Further, the “binding to C5aR1 mutant” value in test [1] (mutation of Y182, P183 & P184) is listed as “reduced binding”. For the same molecule, in test [2], the “antagonism of C5aR1 compared to reference antibodies or to Avacopan” value is listed as “improved”, the “inhibition of C5aR1 signaling / activity” value was “inhibited in a dose-dependent fashion” and the “inhibition of C5aR1 mediated Gα signaling in the presence of C5-alpha” value is listed as “inhibition of C5aR1 mediated Gα signaling”. In addition, the “Binding to Sulfated N-terminal peptide” value in test [3] is on record as “−”.

B3: clone 583: anti-C5aR1 Site I antibody; VH SEQ ID NO: 536, VL SEQ ID NO: 595 (antibody, V domains shown)
VH: EVQLVESGGGLVKPGGSLKLSCAASGFTFNAYAMSWVRQTPEKRLEWVASISTGGNTYCPDSVKDRFTVSRDNVRNILYLQMSSLRSEDTAMYYCTRGYQRFSGFAYWGQGTLVTVS
VL: DVVMTQTPLSPPVSLGYQASISCRSSQSLVHSNGNTYLNWYLQKPGQSPKLLIYKVSNRLSGVPDRFSGSGSGTDFTLKISRVETEDLGVYFCSQSTHVPYTFGGGTKLEIK
For the molecule B3, the “cross-reactivity to cyno and rhesus monkey” value in test [1] is listed as “lack of cross-reactivity”. Further, in test [1], the “requirement of tyrosine sulfation (Y11, Y14) for binding” value is on record as “tyrosine sulfation is not required”. The “binding to C5aR1 mutant” value in test [1] (G12A/T) is recorded as “tolerated”; in test [1] (G12E/D), “abolish binding”; in test [1] (mutations at D15), “abolish binding”; in test [1] (mutations at positions 13 and 14), “tolerated”. Moreover, the “antagonism of C5aR1 compared to reference antibodies or to Avacopan” value in test [2] is reported as “improved”. Besides, the “inhibition of C5aR1 signaling / activity” value in test [2] was “highly potent”. In test [2], the “inhibition of C5aR1 mediated Gα signaling in the presence of C5-alpha” value was “inhibition of C5aR1 mediated Gα signaling”. Besides, in test [3], the “Binding to Sulfated N-terminal peptide” value is “+”.
